Source: article PMC4424056 (Nature structural & molecular biology, 2015)

B2: integrin αIIb cytoplasmic tail (αIIb CT, W988-E1008) (peptide, UniProt P08514 1019-1039, looked up)
chain: WKVGFFKRNRPPLEEDDEEGE
B3: β3-CT L717K-L718K mutant (domain or fragment, human, UniProt P05106 742-788, looked up)
chain: KKKITIHDRKEFAKFEEERARAKWDTANNPLYKEATSTFTNITYRGT
B5: integrin β3 cytoplasmic tail (β3 CT, K716-T762) (domain or fragment, human, UniProt P05106 742-788, looked up)
chain: KLLITIHDRKEFAKFEEERARAKWDTANNPLYKEATSTFTNITYRGT

Key:
[1] = target: T1, β3 transmembrane-cytoplasmic domain (β3 TMCD, K689-T762) (human, UniProt P05106 715-788); assay: NMR titration
T1 sequence (looked up): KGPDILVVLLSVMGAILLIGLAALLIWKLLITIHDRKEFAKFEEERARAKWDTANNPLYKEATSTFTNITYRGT

[2] = target: T2, filamin A immunoglobulin repeat 21 (FLNa-Ig21) (human, UniProt P21333 2236-2330); assay: SPR
T2 sequence: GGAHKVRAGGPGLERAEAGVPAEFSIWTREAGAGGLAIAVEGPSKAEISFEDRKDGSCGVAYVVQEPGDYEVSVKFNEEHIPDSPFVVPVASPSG

FLNa-Ig21 A2268K = target: T3, FLNa-Ig21 A2268K (human, UniProt P21333 2236-2330, A2268K); assay: NMR titration
T3 sequence: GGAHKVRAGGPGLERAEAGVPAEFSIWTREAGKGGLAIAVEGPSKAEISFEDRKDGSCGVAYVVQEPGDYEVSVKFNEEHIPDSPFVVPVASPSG

[3] = target: T4, FLNa-Ig21 pre-saturated β3-CT (human, UniProt P21333 2236-2330; P05106 742-788); assay: SPR
T4 sequence 1: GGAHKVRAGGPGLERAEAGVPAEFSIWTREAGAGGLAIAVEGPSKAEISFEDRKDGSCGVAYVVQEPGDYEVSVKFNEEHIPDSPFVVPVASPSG
T4 sequence 2: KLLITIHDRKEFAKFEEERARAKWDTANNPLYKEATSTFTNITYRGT

[4] = target: B5
[5] = target: T5, GST-FLNa-Ig21-β3 CT chimera (human, UniProt P05106 742-788; P21333 2236-2330); assay: pull-down
T5 chain: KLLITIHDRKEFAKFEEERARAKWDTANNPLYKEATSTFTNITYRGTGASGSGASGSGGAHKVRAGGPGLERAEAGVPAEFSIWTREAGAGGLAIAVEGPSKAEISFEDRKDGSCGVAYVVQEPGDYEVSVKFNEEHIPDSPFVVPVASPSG

β3-CT L717K-L718K mutant = target: B3; assay: NMR structure
[6] = target: T2, filamin A immunoglobulin repeat 21 …; assay: NMR titration
[7] = target: B2; assay: SPR
FLNa-Ig21 E2276A = target: T6, FLNa-Ig21 E2276A (human, UniProt P21333 2236-2330, E2276A); assay: NMR titration
T6 sequence: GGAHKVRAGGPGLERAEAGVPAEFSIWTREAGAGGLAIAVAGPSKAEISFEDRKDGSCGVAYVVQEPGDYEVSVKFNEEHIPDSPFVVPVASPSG

[8] = target: B5; assay: NMR titration

B1: αIIb transmembrane-cytoplasmic domain (αIIb TMCD, E960-E1008) (domain or fragment)
chain: not shown
[1]
  binding result: binds

## KLLITIHDRKEFAKFEEERARAKW (peptide, UniProt P05106 742-765, looked up) [integrin β3 membrane-proximal fragment β3-N (K716-W739)]
[2]
  Kd: ~223 µM

## B2
FLNa-Ig21 A2268K
  binding result: binds
[3]
  binding result: binds
[4]
  Kd: ~368 µM
[5]
  binding result: binds
β3-CT L717K-L718K mutant
  binding result: binds

## B3
[6]
  binding result: binds

B4: FLNa-Ig21-β3-CT chimera (other, human)
chain: KLLITIHDRKEFAKFEEERARAKWDTANNPLYKEATSTFTNITYRGTGASGSGASGSGGAHKVRAGGPGLERAEAGVPAEFSIWTREAGAGGLAIAVEGPSKAEISFEDRKDGSCGVAYVVQEPGDYEVSVKFNEEHIPDSPFVVPVASPSG
[7]
  Kd: ~19 µM

## B5
FLNa-Ig21 E2276A
  binding result: binds
[6]
  binding result: binds

## WKVGFFERNEPPLEEDDEEGE (peptide, UniProt P08514 1019-1039, looked up) [αIIb CT K994E-R997E mutant]
[8]
  binding result: binds
